Molecular target: MUC1 mucin (tumor‐associated MUC1) on human cancer cells (human (endogenous in T47D, A549, MCF-7)) (UniProt P15941)
Sequence of UniProt P15941 (P15941 24-1255, stated change not applied): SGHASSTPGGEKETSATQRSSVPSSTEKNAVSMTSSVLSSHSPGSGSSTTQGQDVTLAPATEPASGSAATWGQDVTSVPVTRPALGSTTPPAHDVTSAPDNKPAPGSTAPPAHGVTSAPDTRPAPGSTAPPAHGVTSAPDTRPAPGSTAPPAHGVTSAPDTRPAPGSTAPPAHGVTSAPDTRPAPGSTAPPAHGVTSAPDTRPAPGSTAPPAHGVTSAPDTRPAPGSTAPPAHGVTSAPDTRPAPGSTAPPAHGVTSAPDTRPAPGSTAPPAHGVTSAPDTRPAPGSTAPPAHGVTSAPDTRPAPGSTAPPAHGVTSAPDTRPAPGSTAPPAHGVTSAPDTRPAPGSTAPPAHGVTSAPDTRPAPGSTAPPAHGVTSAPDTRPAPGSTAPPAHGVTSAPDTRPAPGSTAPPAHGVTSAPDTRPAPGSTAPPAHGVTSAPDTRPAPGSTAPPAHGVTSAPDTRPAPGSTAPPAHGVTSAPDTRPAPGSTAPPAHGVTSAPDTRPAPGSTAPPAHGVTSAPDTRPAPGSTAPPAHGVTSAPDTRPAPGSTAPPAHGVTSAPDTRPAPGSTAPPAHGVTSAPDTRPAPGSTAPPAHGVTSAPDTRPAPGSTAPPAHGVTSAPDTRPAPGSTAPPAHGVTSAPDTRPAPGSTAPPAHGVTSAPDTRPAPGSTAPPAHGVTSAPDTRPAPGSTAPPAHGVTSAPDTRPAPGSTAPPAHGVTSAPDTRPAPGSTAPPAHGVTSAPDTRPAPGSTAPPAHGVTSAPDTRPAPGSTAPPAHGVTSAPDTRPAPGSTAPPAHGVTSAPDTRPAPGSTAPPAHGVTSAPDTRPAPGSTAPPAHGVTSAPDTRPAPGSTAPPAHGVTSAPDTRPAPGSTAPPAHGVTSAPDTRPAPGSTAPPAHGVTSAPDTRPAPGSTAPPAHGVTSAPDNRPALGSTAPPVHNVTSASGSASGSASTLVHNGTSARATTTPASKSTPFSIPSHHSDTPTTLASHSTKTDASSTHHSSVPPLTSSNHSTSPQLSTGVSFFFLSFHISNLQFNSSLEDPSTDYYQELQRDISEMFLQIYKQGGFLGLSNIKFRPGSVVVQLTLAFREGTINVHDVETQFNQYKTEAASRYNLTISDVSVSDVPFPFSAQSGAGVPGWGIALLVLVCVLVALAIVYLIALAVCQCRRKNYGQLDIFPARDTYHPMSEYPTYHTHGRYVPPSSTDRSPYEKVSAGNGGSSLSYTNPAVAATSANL

B1: recombinant anti‐MUC1 nanobody (VHH)
VHH: EVQLVESGGGLVQPGGSLRLSCAASGFTFDDYGMSWVRQAPGKWLEWVSDISWNGGSTYYADSVKGRFTISRDNAENTLYLQMNSLKPDDTAVYYCAKMGEGGWGANDYWGQGTQVTVSS
MTT viability assay, A549 cells, 48 h, IC50 of growth inhibition: 14.3 nM
MTT viability assay, MCF7 cells, 48 h, IC50 of growth inhibition: 7 nM
MTT viability assay, MDA‐MB‐231 cells, 48 h, IC50 of growth inhibition: 10 nM
MTT viability assay, SKBR3 cells, IC50 of growth inhibition: 4.16 nM
MTT viability assay, SW742 cells, 48 h, IC50 of growth inhibition: 7.2 nM
MTT viability assay, T47D cells, 48 h, IC50 of growth inhibition: 1.2 nM
